Laboratory results as given in IntAct's records for PubMed 12361576.

B1: Cofilin-1-A (Xenopus laevis (African clawed frog)), P45695 (parent)
chain: MASGVMVSDDVIKVFNEMKVRHQLSPEDAKKRKKAVVFCLSDDKKTIILEPGKEILQGDIGCNVEDPYKTFVKMLPRNDCRYALYDALYETKETKKEDLVFVFWAPEEASLKSKMIYASSKDAIKKRLPGIKHEWQINTYEDVNDPCNLADKLGGNTVVSLEGKSVRS

Variants of: B1
Settings: with 1433z_bovin YWHAZ

Row | effect of a mutation on the interaction | Variant
1 | decreasing interaction | S3A
